Data taken from the supplement of paper PMC12764529.
± gives the half width of the 95% confidence interval.

Columns and labels:
[1] = folding stability dG unfold from chymotrypsin proteolysis; higher = more stable
Procedure, shortened: (§1)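 How resistant each design was to proteolysis was captured as K50, inferred by Bayesian fitting of sequencing counts. Unfolding free energy was then derived relative to a sequence-predicted unfolded-state K50 and a shared folded-state K50, per protease or combined. Digestion used trypsin and chymotrypsin at 11 threefold-diluted concentrations plus a no-protease condition, on mini-proteins under 80 residues without cysteine in a PA-tagged cDNA display construct. Designs were kept only when AlphaFold2 dimer inter-PAE was above 15.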

[2] = folding stability dG unfold from trypsin proteolysis; higher = more stable
Procedure, shortened: as §1

[3] = folding stability dG unfold (combined trypsin and chymotrypsin); higher = more stable
Procedure, shortened: as §1

| Sequence | folding stability dG unfold [1] [kcal/mol] | folding stability dG unfold [2] [kcal/mol] | folding stability dG unfold [3] [kcal/mol] |
| --- | --- | --- | --- |
| SAGSPVLATLRTYDPVAKKWTESVYPVSDPEALIAEVAAELGVEVEVDPATGVATAPLPDGRLVVVTVVSAG [r5_937_JUSTAS] | 1.56 ± 0.014 | 1.2 ± 0.036 | 1.45 ± 0.051 |
| SAGGSAGGKVRINWNPNGWIRIKIETPGKKQEIPIPMDSPEDAKDFVDKLAKQFKVKIEEIEPYSAGGSAGG [r6_254_TrROS] | 0.166 ± 0.3 | -0.179 ± 0.47 | 0.194 ± 0.26 |
| SAPPRISIPWDPESGNWRVKVYNPKDPGKKREIDIPMKELQAKHGKPMSPNEIAQWLVKKGIDYVEIYPSAG [r14_809_TrROS] | 0.559 ± 0.21 | 0.183 ± 0.19 | 0.409 ± 0.2 |
| SAGGSAGGSESKITILVLDEETQELYLIEVTLKYNPETGELETEMKIEKITLKPGEKLDLKDLSAGGSAGGS [r12_700_TrROS_Hall] | 3.28 ± 0.13 | 2.43 ± 0.2 | 2.94 ± 0.2 |
| SAGGSGATYLSKYEIPLPNGKKLTIIEAYKNPETDLILYIAKTDDGTEYPFVYPSSWSPEDAIKALISSAGG [r13_470_TrMRF] | 2.91 ± 0.034 | 2.25 ± 0.082 | 2.69 ± 0.086 |
| SAGGKQEIEIPIPYKNGMPFRIRIEWEEDPNKPRLRIPIWAPNMPASNFAEEIKKELPPDIKDVEIWPSAGG [r13_404_TrROS] | 0.0456 ± 0.72 | 0.685 ± 0.2 | 0.0846 ± 0.64 |
| SSIIIPGLPAEQARQLAKEFAEHYPNYDVKVEYHPDNGMITVDIEMPHKDPDGKPKGWRKMNINIHIWDPSA [r9_378_TrROS] | 1.53 ± 0.17 | 0.868 ± 0.12 | 1.23 ± 0.2 |
| SMEEFAKSLPDVKIETKPLSPDEIEITVYIPSDPEKAKKVEEIVKKLAEEIEKKTGIKVKVTFKPVPPEESA [r9_1099_JUSTAS] | 3.32 ± 0.21 | 3.24 ± 0.24 | 3.59 ± 0.68 |
| SAGGSAGGSNYVVRIKIRYPDPDGKPIYEHTIDIPVPDEEITADELRKQLKPPGYEITDIEVLSAGGSAGGS [r12_611_TrROS] | 0.314 ± 0.16 | 0.509 ± 0.028 | 0.57 ± 0.12 |
| SAGGSAGGSAGGDWITFTNPGGYKVTVEVDENGWMRVEVYPNGKPQEVPMPLEELKKNAPSAGGSAGGSAGG [r7_178_TrROS] | 0.868 ± 0.17 | -0.451 ± 0.18 | 0.423 ± 0.19 |
| SAGSNKPIKLKAIIEKPKEKKEIEIEIDPNESIESALKKILEKLEPEWKIVIELPNGIKIEFPPSKEMYSAG [r5_77_TrMRF] | 0.0227 ± 0.18 | 1.37 ± 0.083 | 0.91 ± 0.15 |
| SAGGSAGGSKKEEFYKITVYSPNKKAEEIAKKIQEETGTEIVEVKAEKFKDGGIKVIALVKKTSAGGSAGGS [r12_359_TrMRF] | -0.558 ± 0.67 | -0.213 ± 0.19 | -0.0936 ± 0.48 |
| SAGGSMKITVTVSYSELKEKYPDLTEEELKELAEEIAKEKKKEIIEGNPDISENTEIEVKIEKPAVIESAGG [r13_634_JUSTAS] | 2.27 ± 0.052 | 0.76 ± 0.11 | 1.84 ± 0.12 |
| SAGGSAGGSAGGPEWRWREFTIPGDPEEIKKLFPNFKILSPEPPPNGMRKVTIWIPPEDSAGGSAGGSAGGS [r10_764_TrROS] | 1.54 ± 0.079 | -0.0853 ± 0.6 | 1.27 ± 0.12 |
| SAGGSASIEIPFNGHPYKIEIDDVEPPDEQYRAKAEIRFPGNGKKIPVEGDMPKSDAEDAIKEAIRSAGGSA [r15_944_TrROS] | 0.49 ± 0.16 | -0.527 ± 0.19 | 0.362 ± 0.25 |
| SAGGSAGGSAGGSGGSARIEVERLPDGLVLLRIYDPETGEEIEIPMPPDLARSFVFLNGSAGGSAGGSAGGS [r4_494_TrMRF] | 1.51 ± 0.085 | 0.471 ± 0.026 | 1.11 ± 0.045 |
| SAGGSAGGSPNRKEIYIPISEEQFKENGMTPEEIADRIAEKFPHIPPNVRIEYPPNGWIKITVSAGGSAGGS [r12_50_TrROS] | -0.208 ± 0.33 | 0.198 ± 0.11 | 0.229 ± 0.21 |
| SAGGSAGGSAGGKEYEVIEVEVNMTIEELKKLFPNVVEIKVEKNENGELKVTIIIKKDKSAGGSAGGSAGGS [r10_764_TrROS_Hall] | 2.5 ± 0.11 | 1.92 ± 0.08 | 2.31 ± 0.12 |
| SAGGSAGGSAGRVEKIVSNLKPLGYEVLSVEETEDYVLAVVYDPFTDEPRVFRFPKDSPFSAGGSAGGSAGG [r11_428_TrMRF] | 1.18 ± 0.13 | 1.27 ± 0.017 | 1.41 ± 0.11 |
| SAGGSAGGMVYITVDIKKTDPLNGTEREEVITVKVNPDEVEKVIEELKSAPVNVEILKVTIIPPSAGGSAGG [r6_151_JUSTAS] | 1.4 ± 0.043 | 1.75 ± 0.075 | 1.56 ± 0.065 |
| SAGGMVLKPVKLNGNENLKTTADGAEVEYTSDGKGNVTITVRYEPNLTVEALVNGSTVTLVKTEEGYLSAGG [r13_92_JUSTAS] | 0.937 ± 0.11 | 0.843 ± 0.09 | 0.867 ± 0.15 |
